From patent US6649409
Values joined by “and” are separate entries in the source; they are usually repeats but may differ in a detail not shown here. Identical values can stand only once.

How the values were obtained:
[1] = target: HIV-1 BX08 envelope glycoprotein gp160 expressed from the wild type gene wt.gp160BX08 (HIV-1 BX08); assay: flow cytometry (FACS) on transfected 293 cells, PE-labelled rat anti-mouse IgG1 as secondary
[2] = target: HIV-1 BX08 envelope glycoprotein gp160 expressed from the synthetic gene syn.gp160BX08 (HIV-1 BX08); assay: as above
[3] = target: HIV-1 BX08 envelope glycoprotein gp160 expressed from the wild type gene wt.gp160BX08 (HIV-1 BX08); assay: flow cytometry (FACS) on transfected 293 cells, mean of duplicates
[4] = target: HIV-1 BX08 envelope glycoprotein gp160 expressed from the synthetic gene syn.gp160BX08 (HIV-1 BX08); assay: as above

mouse monoclonal IgG antibody to HIV gp120 (NEA-9301, NEN Life Science Products Inc., Boston)
% of cells stained (C: Primary Ab and secondary Ab added) [1]: 14.4% and 7.51%
% of cells stained, C-A (less control without primary antibody) [1]: 11.4% and 5.56%
% of cells stained, C-B (less autofluorescence control) [1]: 13% and 5.99%
% of cells stained (C: Primary Ab and secondary Ab added) [2]: 36.9% and 58.4%
% of cells stained, C-A (less control without primary antibody) [2]: 34.3% and 55.6%
% of cells stained, C-B (less autofluorescence control) [2]: 34.1% and 56.3%
mean % of cells stained [3]: 11%
mean % of cells stained [4]: 48%
